The sequences below were run on F1*sub RNA substrate (template-directed ligation) (assay: fraction ligated after 30 min (ligated reads / total reads); higher = more ligase activity; sequences stand for … in GAGACCGCAACTGAAAAGTTGT…AGTTCTGCACGTAGAAGCAAAAGGC). Details: 42 °C.
Procedure, shortened: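 Ribozyme variants were transcribed with T7 from PCR-amplified oligo-pool templates and gel-purified. Ligated and unligated bands, separated on gel, were reverse transcribed with barcoded primers and sequenced on a MiSeq, with core bases filtered at quality ≥20. Fraction ligated per variant was computed as ligated reads divided by total reads.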

First: TATCACTTGTCGAAGAACTTTGGAGGGTTGA [3d1939]
Second: TATCACTTGTCGAAGAACTTTGGATGGGTTA [3d1941]
The fraction ligated of the first is lower: 0.111 for the first, 0.779 for the second.

Going from “TATCACTTGTCGAAGAACTTTGGATGGGTTG [3d1942]” to “TATCACTTGTCGAAGAACTTTGGATGGTTGA [3d1940]”, the fraction ligated falls from 0.798 to 0.187.

First: TATCACTTGTCGAAGAACTTTGGTGGGTTGA [3d1938]
Second: TATCACTTGTCGAAGAATTTGGATGGGTTGA [3d1935]
The fraction ligated of the first is lower: 0.173 for the first, 0.776 for the second.

First: TATCACTTGTCGAAGACACTGGATGGGTTGA [3d1957]
Second: TATCACTTGTCGAAGACACTTGATGGGTTGA [3d1958]
The fraction ligated of the first is higher: 0.767 for the first, 0.663 for the second.

Compared with “TATCACTTGTCGAAGACACTTGGAGGGTTGA [3d1960]”, “TATCACTTGTCGAAGACACTTGGATGGGTTA [3d1962]” is higher in fraction ligated: 0.0758 for the first, 0.721 for the second.

First: TATCACTTGTCGAAGACACTTGGATGGGTTG [3d1963]
Second: TATCACTTGTCGAAGACACTTGGATGGTTGA [3d1961]
The fraction ligated of the first is higher: 0.794 for the first, 0.106 for the second.

Going from “TATCACTTGTCGAAGACACTTGGTGGGTTGA [3d1959]” to “TATCACTTGTCGAAGACACTTTATGGGTTGA [3d1964]”, the fraction ligated rises from 0.119 to 0.16.

Compared with “TATCACTTGTCGAAGACACTTTGAGGGTTGA [3d1966]”, “TATCACTTGTCGAAGACACTTTGATGGGTTA [3d1968]” is higher in fraction ligated: 0.0437 for the first, 0.15 for the second.

Compared with “TATCACTTGTCGAAGACACTTTGATGGGTTG [3d1969]”, “TATCACTTGTCGAAGACACTTTGATGGTTGA [3d1967]” is lower in fraction ligated: 0.732 for the first, 0.0642 for the second.

Compared with “TATCACTTGTCGAAGACACTTTGGAGGGTTA [3d1975]”, “TATCACTTGTCGAAGACACTTTGGAGGGTTG [3d1976]” is lower in fraction ligated: 0.136 for the first, 0.08 for the second.

Going from “TATCACTTGTCGAAGACACTTTGGAGGTTGA [3d1974]” to “TATCACTTGTCGAAGACACTTTGGATGGGTT [3d1979]”, the fraction ligated rises from 0.0837 to 0.763.

Compared with “TATCACTTGTCGAAGACACTTTGGATGGGTTA [2d219]”, “TATCACTTGTCGAAGACACTTTGGATGGGTTG [2d220]” is higher in fraction ligated: 0.803 for the first, 0.856 for the second.

Compared with “TATCACTTGTCGAAGACACTTTGGATGGTTA [3d1977]”, “TATCACTTGTCGAAGACACTTTGGATGGTTG [3d1978]” is higher in fraction ligated: 0.364 for the first, 0.432 for the second.

Going from “TATCACTTGTCGAAGACACTTTGGATGGTTGA [2d218]” to “TATCACTTGTCGAAGACACTTTGGGGGTTGA [3d1970]”, the fraction ligated falls from 0.615 to 0.133.

Going from “TATCACTTGTCGAAGACACTTTGGTGGGTTA [3d1972]” to “TATCACTTGTCGAAGACACTTTGGTGGGTTG [3d1973]”, the fraction ligated falls from 0.103 to 0.0779.

Going from “TATCACTTGTCGAAGACACTTTGGTGGTTGA [3d1971]” to “TATCACTTGTCGAAGACACTTTGTGGGTTGA [3d1965]”, the fraction ligated falls from 0.0847 to 0.0368.

First: TATCACTTGTCGAAGACATTGGATGGGTTGA [3d1950]
Second: TATCACTTGTCGAAGACATTTGATGGGTTGA [3d1951]
The fraction ligated of the first is higher: 0.787 for the first, 0.329 for the second.

Compared with “TATCACTTGTCGAAGACATTTGGAGGGTTGA [3d1953]”, “TATCACTTGTCGAAGACATTTGGATGGGTTA [3d1955]” is higher in fraction ligated: 0.021 for the first, 0.788 for the second.

First: TATCACTTGTCGAAGACATTTGGATGGGTTG [3d1956]
Second: TATCACTTGTCGAAGACATTTGGATGGTTGA [3d1954]
The fraction ligated of the first is higher: 0.801 for the first, 0.133 for the second.

Going from “TATCACTTGTCGAAGACATTTGGTGGGTTGA [3d1952]” to “TATCACTTGTCGAAGACCTTGGATGGGTTGA [3d1943]”, the fraction ligated rises from 0.05 to 0.768.

Compared with “TATCACTTGTCGAAGACCTTTGATGGGTTGA [3d1944]”, “TATCACTTGTCGAAGACCTTTGGAGGGTTGA [3d1946]” is lower in fraction ligated: 0.76 for the first, 0.198 for the second.

Going from “TATCACTTGTCGAAGACCTTTGGATGGGTTA [3d1948]” to “TATCACTTGTCGAAGACCTTTGGATGGGTTG [3d1949]”, the fraction ligated rises from 0.773 to 0.79.

Going from “TATCACTTGTCGAAGACCTTTGGATGGTTGA [3d1947]” to “TATCACTTGTCGAAGACCTTTGGTGGGTTGA [3d1945]”, the fraction ligated falls from 0.299 to 0.218.

Compared with “TATCACTTGTCGAAGACTTTGGATGGGTTGA [3d1925]”, “TATCACTTGTCGAAGCACTTGGATGGGTTGA [3d1928]” is lower in fraction ligated: 0.784 for the first, 0.747 for the second.

Compared with “TATCACTTGTCGAAGCACTTTGATGGGTTGA [3d1929]”, “TATCACTTGTCGAAGCACTTTGGAGGGTTGA [3d1931]” is lower in fraction ligated: 0.736 for the first, 0.108 for the second.

Going from “TATCACTTGTCGAAGCACTTTGGATGGGTTA [3d1933]” to “TATCACTTGTCGAAGCACTTTGGATGGGTTG [3d1934]”, the fraction ligated rises from 0.723 to 0.783.

Going from “TATCACTTGTCGAAGCACTTTGGATGGTTGA [3d1932]” to “TATCACTTGTCGAAGCACTTTGGTGGGTTGA [3d1930]”, the fraction ligated falls from 0.159 to 0.0884.

Going from “TATCACTTGTCGAAGCATTTGGATGGGTTGA [3d1927]” to “TATCACTTGTCGAAGCCTTTGGATGGGTTGA [3d1926]”, the fraction ligated falls from 0.811 to 0.757.

First: TATCACTTGTCGAGAACTTTGGATGGGTTGA [3d1905]
Second: TATCACTTGTCGAGACACTTGGATGGGTTGA [3d1908]
The fraction ligated of the first is higher: 0.819 for the first, 0.793 for the second.

First: TATCACTTGTCGAGACACTTTGATGGGTTGA [3d1909]
Second: TATCACTTGTCGAGACACTTTGGAGGGTTGA [3d1911]
The fraction ligated of the first is higher: 0.74 for the first, 0.104 for the second.

Compared with “TATCACTTGTCGAGACACTTTGGATGGGTTA [3d1913]”, “TATCACTTGTCGAGACACTTTGGATGGGTTG [3d1914]” is higher in fraction ligated: 0.765 for the first, 0.797 for the second.

Compared with “TATCACTTGTCGAGACACTTTGGATGGGTTGA [2d208]”, “TATCACTTGTCGAGACACTTTGGATGGTTGA [3d1912]” is lower in fraction ligated: 0.816 for the first, 0.166 for the second.

Going from “TATCACTTGTCGAGACACTTTGGTGGGTTGA [3d1910]” to “TATCACTTGTCGAGACATTTGGATGGGTTGA [3d1907]”, the fraction ligated rises from 0.0759 to 0.829.

First: TATCACTTGTCGAGACCTTTGGATGGGTTGA [3d1906]
Second: TATCACTTGTCGAGCACTTTGGATGGGTTGA [3d1904]
The fraction ligated of the first is higher: 0.788 for the first, 0.749 for the second.

Compared with “TATCACTTGTCGGACACTTTGGATGGGTTGA [3d1902]”, “TATCACTTGTCGTAAAACTTGGATGGGTTGA [3d2060]” is lower in fraction ligated: 0.785 for the first, 0.782 for the second.

First: TATCACTTGTCGTAAAACTTTGATGGGTTGA [3d2061]
Second: TATCACTTGTCGTAAAACTTTGGAGGGTTGA [3d2063]
The fraction ligated of the first is higher: 0.781 for the first, 0.0898 for the second.

First: TATCACTTGTCGTAAAACTTTGGATGGGTTA [3d2065]
Second: TATCACTTGTCGTAAAACTTTGGATGGGTTG [3d2066]
The fraction ligated of the first is lower: 0.764 for the first, 0.791 for the second.

Going from “TATCACTTGTCGTAAAACTTTGGATGGGTTGA [2d234]” to “TATCACTTGTCGTAAAACTTTGGATGGTTGA [3d2064]”, the fraction ligated falls from 0.818 to 0.185.

Compared with “TATCACTTGTCGTAAAACTTTGGTGGGTTGA [3d2062]”, “TATCACTTGTCGTAAAATTTGGATGGGTTGA [3d2059]” is higher in fraction ligated: 0.0841 for the first, 0.803 for the second.

Compared with “TATCACTTGTCGTAAACACTGGATGGGTTGA [3d2081]”, “TATCACTTGTCGTAAACACTTGATGGGTTGA [3d2082]” is lower in fraction ligated: 0.787 for the first, 0.727 for the second.

Compared with “TATCACTTGTCGTAAACACTTGGAGGGTTGA [3d2084]”, “TATCACTTGTCGTAAACACTTGGATGGGTTA [3d2086]” is higher in fraction ligated: 0.0636 for the first, 0.492 for the second.

Source: the supplement of paper PMC6755084
